The target of series [1] is T1, EGFR (Homo sapiens, UniProt P00533 P00533:25-1210). The series is described as follows: flow; 10 nM (9.8 at 1 uM); anti-alpha-Gal IgG recruitment to A431 cells; PBS, 5 mM MgCl2, RT. The settings on record: tags: A431 cells (ATCC CRL-1555), endogenous overexpression. Here is the method:
(§1) A431 cells (ATCC CRL-1555) were harvested and resuspended at 5×10⁶ cells/mL in phosphate buffered saline (PBS) (Sigma D8662)+0.1% BSA (Bovine Serum Albumin—Sigma A2153)+0.1 mg/mL Yeast t-RNA (Invitrogen 15401-011)+5 mM MgCl₂ (Sigma M1028) and incubated on ice for 30 minutes to block. 5×10⁵ cells were then incubated with compound at various concentrations as described below or buffer alone at room temperature, shaking at 450 rpm for 1 hour. The cells were washed with 3×200 μL PBS+0.1% BSA, prior to adding 50 μL of Anti-alpha galactosyl IgG antibody (custom purification from human IVIG, Rockland Immunochemicals, Inc.) at 35 μg/mL in PBS+0.1% BSA and incubating at 4° C. for 1 hour. The cells were further washed with 3×200 μL PBS+0.1% BSA before being treated with 100 μL 1:40 dilution of Anti-Human IgG-PE (phycoerythrin) (Biolegend 409303) at 4° C. for 1 hour. After a final wash of 3×200 μL PBS+0.1% BSA the cells were resuspended in 200 μL PBS+0.1% BSA and evaluated on a flow cytometer (FC500 Beckman Coulter). Data from all samples were analysed in the Kaluza software package (Beckman Coulter).
(§2) The fold shift over background was calculated by dividing the Mean Fluorescence Intensity (MFI) obtained in the presence of 10 nM or 1 μM alphamer by the Mean Fluorescence Intensity (MFI) obtained in the absence of alphamer. […]

In series [2] the target is T1, EGFR. The series is described as follows: flow; 10 nM (16.3 at 1 uM); anti-alpha-Gal IgG recruitment to A431 cells; PBS, 5 mM MgCl2, RT. The conditions noted are these: tags: A431 cells (ATCC CRL-1555), endogenous overexpression. Here is the method:
as §1, §2

Series [3] deals with T1, EGFR. Nature of the series: flow; 10 nM (7.5 at 1 uM); anti-alpha-Gal IgG recruitment to A431 cells; PBS, 5 mM MgCl2, RT. The settings on record: tags: A431 cells (ATCC CRL-1555), endogenous overexpression. Here is the method: as §1, §2
The target in series [4] is T1, EGFR. Nature of the series: flow; 10 nM (18.4 at 1 uM); anti-alpha-Gal IgG recruitment to A431 cells; PBS, 5 mM MgCl2, RT. The settings on record: tags: A431 cells (ATCC CRL-1555), endogenous overexpression. As to the method: as §1, §2
Series [5] addresses T2, PSMA (Homo sapiens, UniProt Q04609 Q04609:1-750). Nature of the series: flow; 10 nM (11.1 at 1 uM); anti-alpha-Gal IgG recruitment to LNCaP cells; PBS, 5 mM MgCl2, RT. The settings on record: tags: LNCaP cells (ATCC CRL-1740), endogenous overexpression. As to the method: as §1, with “LNCaP” for “A431”, “CRL-1740)” for “CRL-1555)”, “The cells were washed with 3×200 μL PBS+0.1% BSA, prior to adding 50 μL of Anti-alpha galactosyl IgG antibody (custom purification from human IVIG, Rockland Immunochemicals, Inc.) at 35 μg/mL in PBS+0.1% BSA and incubating at 4° C. for 1 hour.” left out
(§3) The fold shift over background was calculated by dividing the Mean Fluorescence Intensity (MFI) obtained in the presence of 10 nM or 1 μM alphamer by the Mean Fluorescence Intensity (MFI) obtained in the absence of alphamer. The fold shift over background is reported as a geometric mean with standard error in brackets. The number of independent experiments is also reported. […]

Series [6] deals with T2, PSMA. Nature of the series: flow; 10 nM (8.5 at 1 uM); anti-alpha-Gal IgG recruitment to LNCaP cells; PBS, 5 mM MgCl2, RT. The conditions noted are these: tags: LNCaP cells (ATCC CRL-1740), endogenous overexpression. Here is the method: as §1, with “LNCaP” for “A431”, “CRL-1740)” for “CRL-1555)”, “The cells were washed with 3×200 μL PBS+0.1% BSA, prior to adding 50 μL of Anti-alpha galactosyl IgG antibody (custom purification from human IVIG, Rockland Immunochemicals, Inc.) at 35 μg/mL in PBS+0.1% BSA and incubating at 4° C. for 1 hour.” left out
as §3

The target in series [7] is T2, PSMA. Nature of the series: flow; 10 nM (8.6 at 1 uM); anti-alpha-Gal IgG recruitment to LNCaP cells; PBS, 5 mM MgCl2, RT. The settings on record: tags: LNCaP cells (ATCC CRL-1740), endogenous overexpression. Here is the method: as §1, with “LNCaP” for “A431”, “CRL-1740)” for “CRL-1555)”, “The cells were washed with 3×200 μL PBS+0.1% BSA, prior to adding 50 μL of Anti-alpha galactosyl IgG antibody (custom purification from human IVIG, Rockland Immunochemicals, Inc.) at 35 μg/mL in PBS+0.1% BSA and incubating at 4° C. for 1 hour.” left out
as §3

T2 sequence (Q04609 whole entry, one chain of several): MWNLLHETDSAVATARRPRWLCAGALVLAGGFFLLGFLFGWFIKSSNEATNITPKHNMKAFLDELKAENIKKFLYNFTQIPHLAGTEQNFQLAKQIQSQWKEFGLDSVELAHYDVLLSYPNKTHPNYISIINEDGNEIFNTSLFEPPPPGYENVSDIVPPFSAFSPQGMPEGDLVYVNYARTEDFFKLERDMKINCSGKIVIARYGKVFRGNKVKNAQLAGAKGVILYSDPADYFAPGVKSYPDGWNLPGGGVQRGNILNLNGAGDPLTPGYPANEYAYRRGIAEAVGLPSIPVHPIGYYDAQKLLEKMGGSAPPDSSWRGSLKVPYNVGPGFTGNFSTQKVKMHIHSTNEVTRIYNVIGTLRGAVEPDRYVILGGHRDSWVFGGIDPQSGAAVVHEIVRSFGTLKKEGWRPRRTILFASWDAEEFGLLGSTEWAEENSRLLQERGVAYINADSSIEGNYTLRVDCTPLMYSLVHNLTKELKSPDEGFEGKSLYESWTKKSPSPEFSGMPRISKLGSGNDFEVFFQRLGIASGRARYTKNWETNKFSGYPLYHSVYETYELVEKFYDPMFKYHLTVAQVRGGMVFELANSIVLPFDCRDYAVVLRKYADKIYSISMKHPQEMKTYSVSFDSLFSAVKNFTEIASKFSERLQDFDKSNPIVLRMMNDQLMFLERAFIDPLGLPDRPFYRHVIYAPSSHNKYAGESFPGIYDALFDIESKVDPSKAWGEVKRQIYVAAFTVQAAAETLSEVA

B1: Example 1 (EGFR aptamer 1-alpha-Gal double cluster 1) (ssRNA)
RNA: GGGAUUUAAUCGCCGUAGAAAAGCAUGUCAAAGCCGGAACCC
modifications: 2'-F pyrimidines, 2'-OMe at most purines (mG, most mA), remaining A 2'-OH; 5' H2N-(CH2)6 linked to alpha-Gal cluster; 3' idT
Take B1: the binding signal with EGFR [1] was 7.7 fold MFI over background.

B2: Example 3 (EGFR aptamer 1-alpha-Gal double cluster 3) (ssRNA)
RNA: B1 RNA
modifications: 2'-F pyrimidines, 2'-OMe at most purines (mG, most mA), remaining A 2'-OH; 5' H2N-(CH2)6 linked to alpha-Gal cluster; 3' idT
In turn, B2 displayed a binding signal with EGFR [2] of 9.7 fold MFI over background.

B3: Example 4 (EGFR aptamer 1-alpha-Gal double cluster 4) (ssRNA)
RNA: B1 RNA
modifications: 2'-F pyrimidines, 2'-OMe at most purines (mG, most mA), remaining A 2'-OH; 5' H2N-(CH2)6 linked to alpha-Gal cluster; 3' idT
In the series with EGFR [3], B3 returned a binding signal of 3.4 fold MFI over background.

B4: Example 2 (EGFR aptamer 1-alpha-Gal double cluster 2) (ssRNA)
RNA: B1 RNA
modifications: 2'-F pyrimidines, 2'-OMe at most purines (mG, most mA), remaining A 2'-OH; 5' H2N-(CH2)6 linked to alpha-Gal cluster; 3' idT
B4 showed a binding signal with EGFR [4] of 10.7 fold MFI over background.

B5: Example 5 (PSMA aptamer A9g-alpha-Gal double cluster 1) (ssRNA)
RNA: GGGACCGAAAAAGACCUGACUUCUAUACUAAGUCUACGUUCCC
modifications: 2'-F pyrimidines, 2'-OH purines; 5' H2N-(CH2)6 linked to alpha-Gal cluster; 3' idT
In the series with PSMA [5], B5 had a binding signal of 7.8 fold MFI over background.

B6: Example 6 (PSMA aptamer A9g-alpha-Gal double cluster 5) (ssRNA)
RNA: B5 RNA
modifications: 2'-F pyrimidines, 2'-OH purines; 5' H2N-(CH2)6 linked to alpha-Gal cluster; 3' idT
For B6, the binding signal with PSMA [6] is 5.33 fold MFI over background.

B7: Example 7 (PSMA aptamer A9g-alpha-Gal double cluster 2) (ssRNA)
RNA: B5 RNA
modifications: 2'-F pyrimidines, 2'-OH purines; 5' H2N-(CH2)6 linked to alpha-Gal cluster; 3' idT
Regarding B7, the binding signal with PSMA [7] was 3.82 fold MFI over background.
